Measurements: the Human Domainome abundance scans (Beltran et al. 2025)
± gives the uncertainty stated by the source.

B1: Membrane-associated guanylate kinase, WW and PDZ domain-containing protein 2, residues 601 to 682; numbered along this chain, Q86UL8 (parent)
chain: AELMTLTIVKGAQGFGFTIADSPTGQRVKQILDIQGCPGLCEGDLIVEINQQNVQNLSHTEVVDILKDCPIGSETSLIIHRG

Variants of: B1
Assay: abundance fitness (aPCA) (normalised: wild type 0, dead -1); higher = more abundant; growth selection in yeast, the domain comes from the species named
Conditions: Homo sapiens

Variant	abundance fitness
R27I	0.047 ± 0.3
R27P	-0.382 ± 0.18
R27T	0.021 ± 0.11
R27V	0.047 ± 0.12
R27S	-0.158 ± 0.096
R27G	-0.107 ± 0.1
R27W	-0.054 ± 0.18
R27E	-0.173 ± 0.1
R27A	-0.042 ± 0.17
R27M	-0.066 ± 0.29
R27D	-0.42 ± 0.3
R27H	-0.089 ± 0.21
R27C	-0.589 ± 0.47
R27L	-0.007 ± 0.12
Q30V	-0.102 ± 0.07
Q30P	-0.103 ± 0.11
Q30C	-0.205 ± 0.16
Q30A	-0.052 ± 0.17
Q30H	-0.062 ± 0.15
Q30S	-0.076 ± 0.098
Q30K	0.363 ± 0.34

Variant	abundance fitness
Q30W	0.04 ± 0.27
Q30F	0.234 ± 0.24
Q30M	0.098 ± 0.12
Q30R	-0.111 ± 0.094
Q30D	-0.022 ± 0.2
Q30T	-0.117 ± 0.19
Q30N	-0.302 ± 0.48
Q30E	-0.188 ± 0.14
Q30L	0.066 ± 0.1
Q30Y	-0.064 ± 0.15
C37A	-0.195 ± 0.11
C37P	-0.384 ± 0.18
C37I	-0.173 ± 0.27
C37Q	-0.113 ± 0.16
C37D	-0.052 ± 0.1
C37Y	-0.036 ± 0.21
C37S	0.012 ± 0.18
C37F	0.204 ± 0.49
C37R	-0.163 ± 0.08
C37M	-0.16 ± 0.15
C37W	-0.287 ± 0.18

Variant	abundance fitness
C37T	-0.05 ± 0.15
C37E	0.005 ± 0.12
C37K	-0.208 ± 0.11
C37G	-0.28 ± 0.097
C37V	-0.119 ± 0.099
P38H	-0.363 ± 0.36
P38W	-0.09 ± 0.15
P38Q	-0.121 ± 0.14
P38C	-0.158 ± 0.11
P38T	-0.038 ± 0.096
P38L	0.037 ± 0.098
P38S	-0.056 ± 0.094
P38E	-0.11 ± 0.09
P38A	-0.096 ± 0.12
P38V	-0.097 ± 0.088
P38G	-0.067 ± 0.077
P38R	-0.13 ± 0.098
P38K	-0.001 ± 0.17
L32R	-0.069 ± 0.082
L32V	0.052 ± 0.12
L32C	-0.197 ± 0.18

Variant	abundance fitness
L32S	0.024 ± 0.09
L32Y	-0.16 ± 0.3
L32D	0.022 ± 0.16
L32Q	-0.212 ± 0.25
L32I	-0.057 ± 0.13
L32W	-0.158 ± 0.22
L32G	0.021 ± 0.059
L32T	-0.023 ± 0.12
L32K	-0.295 ± 0.12
L32M	0.035 ± 0.24
L32P	-0.119 ± 0.13
L32A	-0.218 ± 0.27
L32N	-0.124 ± 0.29
G25N	-0.162 ± 0.079
G25V	-0.514 ± 0.051
G25Y	-0.177 ± 0.1
G25Q	-0.255 ± 0.058
G25R	-0.356 ± 0.04
G25P	-0.371 ± 0.075
G25T	-0.318 ± 0.062
